# Results from US20260250371A1 (ULTRAGENYX PHARMACEUTICAL, published 2026).
# Positions count from the first letter of the chain named. Numbers in names are those of the source. Where “and” joins values, the source holds several entries; their conditions need not be identical. Equal values may be shown once.
# B1: UGX139 (antibody, human IgG1, kappa, V domains shown)
# VH: QVQLVQSGAEVKKPGASVKVSCKASGYTFTNHYMHWVRQAPGQGLEWMGIINPISGSTSNAQKFQGRVTMTRDTSTSTVYMELSSLRSEDTAVYYCARDIVDAFDFWGQGTMVTVSS
# VL: AIQLTQSPSSLSASVGDRVTITCRASQGISSALVWYQQKPGKAPKLLIYDASSLESGVPSRFSGSGSGTDFTLTISSLQPEDFATYYCQQFYDYFTFGPGTKVDIKR
# notes: also called UGX038; LC:N92Y
# B2: UGX126 (antibody, human IgG1, kappa, V domains shown)
# VH: B1 VH
# VL: B1 VL with S52D, Y92N
# notes: also called LC:S52D; S52D
# B3: UGX157 (antibody, human IgG1, kappa, V domains shown)
# VH: B1 VH with I54Y
# VL: B1 VL with Y92N
# notes: also called HC:I54Y; I54Y
# B4: UGX145 (antibody, human IgG1, kappa, V domains shown)
# VH: B1 VH
# VL: B1 VL with Y92N, Y94E
# notes: also called UGX042; LC:Y94E
# B5: UGX182 (antibody, human IgG1, kappa, V domains shown)
# VH: B1 VH with S59D, V101I
# VL: B1 VL with Y92N
# notes: also called HC:S59D, HC:V101I; S59D/V101I
# B6: UGX156 (antibody, human IgG1, kappa, V domains shown)
# VH: B1 VH with I54F
# VL: B1 VL with Y92N
# notes: also called HC:I54F; I54F
# B7: UGX175 (antibody, human IgG1, kappa, V domains shown)
# VH: B1 VH with A103S
# VL: B1 VL with Y92N
# notes: also called HC:A103S; A103S
# B8: Burosumab (antibody, human IgG1, kappa, V domains shown)
# VH: B1 VH
# VL: B1 VL with Y92N
# notes: Recombinant human IgG1 kappa; also called burosumab-twza; parental burosumab
# B9: UGX190 (antibody, human IgG1, kappa, V domains shown)
# VH: B1 VH with S59T, V101L
# VL: B1 VL with Y92N
# notes: also called HC:S59T, HC:V101L
# B10: UGX165 (antibody, human IgG1, kappa, V domains shown)
# VH: B1 VH with S59V
# VL: B1 VL with Y92N
# notes: also called HC:S59V
# B11: UGX166 (antibody, human IgG1, kappa, V domains shown)
# VH: B1 VH with S59Y
# VL: B1 VL with Y92N
# notes: also called UGX068; HC:S59Y
# B12: UGX162 (antibody, human IgG1, kappa, V domains shown)
# VH: B1 VH with S59L
# VL: B1 VL with Y92N
# notes: also called HC:S59L
# B13: UGX178 (antibody, human IgG1, kappa, V domains shown)
# VH: B1 VH with N31F, S59F
# VL: B1 VL with Y92N
# notes: also called HC:N31F, HC:S59F
# B14: UGX159 (antibody, human IgG1, kappa, V domains shown)
# VH: B1 VH with S59E
# VL: B1 VL with Y92N
# notes: also called HC:S59E
# B15: UGX192 (antibody, human IgG1, kappa, V domains shown)
# VH: B1 VH with N52F, V101I
# VL: B1 VL with Y92N
# notes: also called HC:N52F, HC:V101I
# B16: UGX161 (antibody, human IgG1, kappa, V domains shown)
# VH: B1 VH with S59I
# VL: B1 VL with Y92N
# notes: also called HC:S59I
# B17: UGX188 (antibody, human IgG1, kappa, V domains shown)
# VH: B1 VH with S57E, S59D
# VL: B1 VL with Y92N
# notes: also called HC:S57E, HC:S59D
# B18: UGX153 (antibody, human IgG1, kappa, V domains shown)
# VH: B1 VH with N31R
# VL: B1 VL with Y92N
# notes: also called HC:N31R
# B19: UGX160 (antibody, human IgG1, kappa, V domains shown)
# VH: B1 VH with S59F
# VL: B1 VL with Y92N
# notes: also called UGX066; HC:S59F
# B20: UGX164 (antibody, human IgG1, kappa, V domains shown)
# VH: B1 VH with S59T
# VL: B1 VL with Y92N
# notes: also called HC:S59T
# Target: T1, cynomolgus monkey (Macaca fascicularis) FGF23 (R179Q) (cynomolgus monkey (Macaca fascicularis), UniProt Q9GZV9 25-251 (human entry), limits assumed)
# T1 construct: also called cynoFGF23; cynoFGF23(R179Q)
# T1 chain: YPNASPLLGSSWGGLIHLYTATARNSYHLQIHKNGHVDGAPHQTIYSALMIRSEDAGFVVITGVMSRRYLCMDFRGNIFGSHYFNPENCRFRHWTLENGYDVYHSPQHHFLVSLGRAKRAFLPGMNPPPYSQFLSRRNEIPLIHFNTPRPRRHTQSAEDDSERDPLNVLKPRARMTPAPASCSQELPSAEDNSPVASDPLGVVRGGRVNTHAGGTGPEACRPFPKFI
# Assay: SPR, antibody captured on hIgG chip, cynoFGF23(R179Q) analyte, single cycle kinetics
# Method: Binding kinetics of 13 antibody variants shown in Table 19 were characterized against cynomolgus monkey (Macaca fascicularis) FGF23 (R179Q) (i.e., “cynoFGF23”) (SEQ ID NO: 372). Antibody variants were expressed at small scale (3 ml) and screened by SPR analysis at a single concentration (100 nM). Experimental setup of SPR analysis for CRC: SPR device—8K+; chip preparation—CM5 hIgG chip: channels—1-8; immobilization concentration—1.5 ug/ml; immobilization method—capture; flow rate—5 μl/min; contact time—60 s; running buffer—1×HBS-EP+pH 7.4; temperature—20° C.: flow rate—50 μl/min; association time—120 s; dissociation time—1800 s; antigen—cynoFGF23(R179Q): top concentration—0.1 μM, 9-pt 3-fold Single Cycle Kinetics.
Binder,KD ratio (variant antibody KD/burosumab KD),Kd [nM]
B1,1,0.0162
B2,2,0.0103
B3,4,0.00573
B4,2,0.0129
B5,1,0.0163
B6,6,0.00415
B7,4,0.00617

# Target: T2, recombinant human FGF23 (R179Q) (human, UniProt Q9GZV9 25-251)
# T2 construct: also called rhFGF23(R179Q); hFGF23(R179Q)
# T2 sequence (looked up): T1 chain with N85D, R92Q, W94Q, H108Y, R149I, V195M, A219G, P224A
# Assay: SPR, antibody captured on hIgG chip, human FGF23 analyte
Binder,KD ratio (variant antibody KD/burosumab KD),Kd [nM]
B1,1,0.0164
B2,2,0.0124
B3,3,0.00758
B4,2,0.0133
B5,2,0.00947
B6,2,0.0105
B7,3,0.00772

# Target: T2, recombinant human FGF23 (R179Q)
# Assay: SPR, antibody captured on hIgG chip, rhFGF23(R179Q) analyte
Binder,Kd [nM],Ratio (variant antibody KD/burosumab KD),SA (surface activity) [%],koff [s⁻¹],kon [M⁻¹ s⁻¹]
B8,0.0208,1,88.8,0.000157,7.22e+06
B2,0.0124,2,86.5,0.00013,1.05e+07
B3,0.00758,3,89.1,0.000113,1.49e+07
B4,0.0133,2,87.4,8.52e-05,6.42e+06
B5,0.00947,2,100,0.000141,1.49e+07
B6,0.0105,2,106,6.25e-05,5.94e+06
B7,0.00772,3,86.8,9.61e-05,1.24e+07

# Target: T2, recombinant human FGF23 (R179Q)
# Assay: as above
# Remark: another data set of the same source
Binder,Kd,Ratio (variant antibody KD/burosumab KD),SA (surface activity) [%],koff,kon
B9,3.08 nM,0,92.7,0.0103 s⁻¹,3.35e+06 M⁻¹ s⁻¹
B1,0.0164 nM,1,86.2,0.000104 s⁻¹,6.32e+06 M⁻¹ s⁻¹
B10,0.0363 nM and 0.0448 nM,–,–,0.000175 s⁻¹ and 0.00022 s⁻¹,4.82e+06 M⁻¹ s⁻¹ and 4.92e+06 M⁻¹ s⁻¹
B2,0.0124 nM,2,86.5,0.00013 s⁻¹,1.05e+07 M⁻¹ s⁻¹
B11,0.0224 nM,1,93.1,0.000196 s⁻¹,8.77e+06 M⁻¹ s⁻¹
B3,0.00758 nM,3,89.1,0.000113 s⁻¹,1.49e+07 M⁻¹ s⁻¹
B4,0.0138 nM and 0.0133 nM,–,–,8.52e-05 s⁻¹ and 9.74e-05 s⁻¹,6.42e+06 M⁻¹ s⁻¹ and 7.07e+06 M⁻¹ s⁻¹
B12,0.0986 nM,0,88.4,0.000472 s⁻¹,4.79e+06 M⁻¹ s⁻¹
B13,0.0212 nM,1,85.6,0.000134 s⁻¹,6.33e+06 M⁻¹ s⁻¹
B5,0.00947 nM,2,100,0.000141 s⁻¹,1.49e+07 M⁻¹ s⁻¹
B14,0.0226 nM and 0.0251 nM,1,–,0.000224 s⁻¹ and 0.000222 s⁻¹,9.91e+06 M⁻¹ s⁻¹ and 8.83e+06 M⁻¹ s⁻¹
B15,20.6 nM,0,82.3,0.0236 s⁻¹,1.15e+06 M⁻¹ s⁻¹
B16,0.061 nM,0,84.2,0.000267 s⁻¹,4.38e+06 M⁻¹ s⁻¹
B17,0.0183 nM,1,95.8,0.000253 s⁻¹,1.39e+07 M⁻¹ s⁻¹
B6,0.00924 nM and 0.0105 nM,2,–,9.77e-05 s⁻¹ and 6.25e-05 s⁻¹,1.06e+07 M⁻¹ s⁻¹ and 5.94e+06 M⁻¹ s⁻¹
B18,0.112 nM,0,83.7,0.000322 s⁻¹,2.87e+06 M⁻¹ s⁻¹
B19,0.0142 nM and 0.0147 nM and 0.0146 nM,1,–,8.7e-05 s⁻¹ and 9.61e-05 s⁻¹ and 9.01e-05 s⁻¹,6.2e+06 M⁻¹ s⁻¹ (2×) and 6.5e+06 M⁻¹ s⁻¹
B20,0.0336 nM,1,91.9,0.00019 s⁻¹,5.64e+06 M⁻¹ s⁻¹
B7,0.00772 nM,3,86.8,9.61e-05 s⁻¹,1.24e+07 M⁻¹ s⁻¹
